Source: patent US20140162945A1 (BEIJING HANMI PHARMACEUTICAL, published 2014)
Bridges are numbered along the chain shown (N, C = ends). Where no end group is shown, it is not given here. [ ]: non-standard residue; d: D form. The star is where a group is joined. Palmitoyl = CCCCCCCCCCCCCCCC(=O)*; Aib = CC(C)(N)C(=O)O

T1: human GIP receptor (human, UniProt P48546 22-466)
T1 sequence (looked up): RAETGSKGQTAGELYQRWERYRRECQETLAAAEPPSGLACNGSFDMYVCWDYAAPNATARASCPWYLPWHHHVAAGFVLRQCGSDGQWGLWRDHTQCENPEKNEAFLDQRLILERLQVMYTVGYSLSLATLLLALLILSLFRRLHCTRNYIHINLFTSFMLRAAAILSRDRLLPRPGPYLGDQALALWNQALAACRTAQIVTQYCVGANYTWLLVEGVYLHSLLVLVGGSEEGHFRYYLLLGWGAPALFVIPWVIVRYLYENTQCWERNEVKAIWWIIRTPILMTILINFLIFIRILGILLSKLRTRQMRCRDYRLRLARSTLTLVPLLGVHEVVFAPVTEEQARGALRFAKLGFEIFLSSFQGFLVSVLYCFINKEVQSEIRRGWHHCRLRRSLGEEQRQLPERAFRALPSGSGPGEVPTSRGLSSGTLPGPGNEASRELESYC


Key:
human GLP-1 receptor = human GLP-1 receptor (human, UniProt P43220 24-463); assay: cell-based or functional assay
human GIP receptor = molecular target: T1, human GIP receptor; assay: cell-based or functional assay

Chain of human GLP-1 receptor (P43220 24-463): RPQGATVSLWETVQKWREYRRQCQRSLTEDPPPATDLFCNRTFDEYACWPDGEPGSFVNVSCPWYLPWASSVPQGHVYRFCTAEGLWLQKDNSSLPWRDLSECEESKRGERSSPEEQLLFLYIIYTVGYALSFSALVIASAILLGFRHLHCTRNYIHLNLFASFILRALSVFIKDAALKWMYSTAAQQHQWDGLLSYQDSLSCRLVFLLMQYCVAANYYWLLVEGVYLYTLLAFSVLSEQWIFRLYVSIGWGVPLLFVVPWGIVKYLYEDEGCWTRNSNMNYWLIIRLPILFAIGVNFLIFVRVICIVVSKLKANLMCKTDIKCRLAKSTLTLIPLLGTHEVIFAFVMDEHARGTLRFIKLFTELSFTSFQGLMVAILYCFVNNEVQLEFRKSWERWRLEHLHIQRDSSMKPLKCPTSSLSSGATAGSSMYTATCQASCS

Binder | EC50, GLP-1 Receptor cAMP induction (human GLP-1 receptor) [nM] | Relative Potency, GLP-1 Receptor (human GLP-1 receptor) [%] | EC50, GIP Receptor cAMP induction (human GIP receptor) [nM] | Relative Potency, GIP Receptor (human GIP receptor) [%]
Y[Aib]EGTFTSDYSEYMEKEAVREFIAWLVKGK(Palmitoyl)-NH2 (lactam 12-16; N-terminus assumed; SMILES CCCCCCCCCCCCCCCC(=O)NCCCC[C@H](NC(=O)CNC(=O)[C@H](CCCCN)NC(=O)[C@@H](NC(=O)[C@H](CC(C)C)NC(=O)[C@H](Cc1c[nH]c2ccccc12)NC(=O)[C@H](C)NC(=O)[C@@H](NC(=O)[C@H](Cc1ccccc1)NC(=O)[C@H](CCC(=O)O)NC(=O)[C@H](CCCNC(=N)N)NC(=O)[C@@H](NC(=O)[C@H](C)NC(=O)[C@H](CCC(=O)O)NC(=O)[C@@H]1CCCCNC(=O)CC[C@H](NC(=O)[C@H](CO)NC(=O)[C@H](Cc2ccc(O)cc2)NC(=O)[C@H](CC(=O)O)NC(=O)[C@H](CO)NC(=O)[C@@H](NC(=O)[C@H](Cc2ccccc2)NC(=O)[C@@H](NC(=O)CNC(=O)[C@H](CCC(=O)O)NC(=O)C(C)(C)NC(=O)[C@@H](N)Cc2ccc(O)cc2)[C@@H](C)O)[C@@H](C)O)C(=O)N[C@@H](Cc2ccc(O)cc2)C(=O)N[C@@H](CCSC)C(=O)N[C@@H](CCC(=O)O)C(=O)N1)C(C)C)[C@@H](C)CC)C(C)C)C(N)=O) [Analog 084] | 4.8 | 22.2 | 1.34 | 8.8
Y[Aib]EGTFTSDYSIYMEKEAVK(Palmitoyl)EFIAWLVKG-NH2 (N-terminus assumed; SMILES CCCCCCCCCCCCCCCC(=O)NCCCC[C@H](NC(=O)[C@@H](NC(=O)[C@H](C)NC(=O)[C@H](CCC(=O)O)NC(=O)[C@H](CCCCN)NC(=O)[C@H](CCC(=O)O)NC(=O)[C@H](CCSC)NC(=O)[C@H](Cc1ccc(O)cc1)NC(=O)[C@@H](NC(=O)[C@H](CO)NC(=O)[C@H](Cc1ccc(O)cc1)NC(=O)[C@H](CC(=O)O)NC(=O)[C@H](CO)NC(=O)[C@@H](NC(=O)[C@H](Cc1ccccc1)NC(=O)[C@@H](NC(=O)CNC(=O)[C@H](CCC(=O)O)NC(=O)C(C)(C)NC(=O)[C@@H](N)Cc1ccc(O)cc1)[C@@H](C)O)[C@@H](C)O)[C@@H](C)CC)C(C)C)C(=O)N[C@@H](CCC(=O)O)C(=O)N[C@@H](Cc1ccccc1)C(=O)N[C@H](C(=O)N[C@@H](C)C(=O)N[C@@H](Cc1c[nH]c2ccccc12)C(=O)N[C@@H](CC(C)C)C(=O)N[C@H](C(=O)N[C@@H](CCCCN)C(=O)NCC(N)=O)C(C)C)[C@@H](C)CC) [Analog 067] | 7.87 | 13.9 | 3.7 | 4.6
Y[Aib]EGTFTSDYSIAMEKIHQQDFVNWLLAQ-NH2 [Analog 002] | 995 | – | 11.1 | –
Y[Aib]EGTFTSDYSIYMEKEAVREFIAWLVKGKKKKK-NH2 (N-terminus assumed; SMILES CC[C@H](C)[C@H](NC(=O)[C@H](Cc1ccccc1)NC(=O)[C@H](CCC(=O)O)NC(=O)[C@H](CCCNC(=N)N)NC(=O)[C@@H](NC(=O)[C@H](C)NC(=O)[C@H](CCC(=O)O)NC(=O)[C@H](CCCCN)NC(=O)[C@H](CCC(=O)O)NC(=O)[C@H](CCSC)NC(=O)[C@H](Cc1ccc(O)cc1)NC(=O)[C@@H](NC(=O)[C@H](CO)NC(=O)[C@H](Cc1ccc(O)cc1)NC(=O)[C@H](CC(=O)O)NC(=O)[C@H](CO)NC(=O)[C@@H](NC(=O)[C@H](Cc1ccccc1)NC(=O)[C@@H](NC(=O)CNC(=O)[C@H](CCC(=O)O)NC(=O)C(C)(C)NC(=O)[C@@H](N)Cc1ccc(O)cc1)[C@@H](C)O)[C@@H](C)O)[C@@H](C)CC)C(C)C)C(=O)N[C@@H](C)C(=O)N[C@@H](Cc1c[nH]c2ccccc12)C(=O)N[C@@H](CC(C)C)C(=O)N[C@H](C(=O)N[C@@H](CCCCN)C(=O)NCC(=O)N[C@@H](CCCCN)C(=O)N[C@@H](CCCCN)C(=O)N[C@@H](CCCCN)C(=O)N[C@@H](CCCCN)C(=O)N[C@@H](CCCCN)C(N)=O)C(C)C) [Analog 060] | 2.97 | 36.8 | 2.5 | 8.4
Y[Aib]EGTFTSDYSIYMEKEAVREFIAWLVKGGPSSGAPPPSK-NH2 (N-terminus assumed; SMILES CC[C@H](C)[C@H](NC(=O)[C@H](Cc1ccccc1)NC(=O)[C@H](CCC(=O)O)NC(=O)[C@H](CCCNC(=N)N)NC(=O)[C@@H](NC(=O)[C@H](C)NC(=O)[C@H](CCC(=O)O)NC(=O)[C@H](CCCCN)NC(=O)[C@H](CCC(=O)O)NC(=O)[C@H](CCSC)NC(=O)[C@H](Cc1ccc(O)cc1)NC(=O)[C@@H](NC(=O)[C@H](CO)NC(=O)[C@H](Cc1ccc(O)cc1)NC(=O)[C@H](CC(=O)O)NC(=O)[C@H](CO)NC(=O)[C@@H](NC(=O)[C@H](Cc1ccccc1)NC(=O)[C@@H](NC(=O)CNC(=O)[C@H](CCC(=O)O)NC(=O)C(C)(C)NC(=O)[C@@H](N)Cc1ccc(O)cc1)[C@@H](C)O)[C@@H](C)O)[C@@H](C)CC)C(C)C)C(=O)N[C@@H](C)C(=O)N[C@@H](Cc1c[nH]c2ccccc12)C(=O)N[C@@H](CC(C)C)C(=O)N[C@H](C(=O)N[C@@H](CCCCN)C(=O)NCC(=O)NCC(=O)N1CCC[C@H]1C(=O)N[C@@H](CO)C(=O)N[C@@H](CO)C(=O)NCC(=O)N[C@@H](C)C(=O)N1CCC[C@H]1C(=O)N1CCC[C@H]1C(=O)N1CCC[C@H]1C(=O)N[C@@H](CO)C(=O)N[C@@H](CCCCN)C(N)=O)C(C)C) [Analog 066] | 2.5 | 43.7 | 0.34 | 50
Y[Aib]EGTFTSDYSIYMEKEAVKEFIAWLVKG-NH2 (N-terminus assumed; SMILES CC[C@H](C)[C@H](NC(=O)[C@H](Cc1ccccc1)NC(=O)[C@H](CCC(=O)O)NC(=O)[C@H](CCCCN)NC(=O)[C@@H](NC(=O)[C@H](C)NC(=O)[C@H](CCC(=O)O)NC(=O)[C@H](CCCCN)NC(=O)[C@H](CCC(=O)O)NC(=O)[C@H](CCSC)NC(=O)[C@H](Cc1ccc(O)cc1)NC(=O)[C@@H](NC(=O)[C@H](CO)NC(=O)[C@H](Cc1ccc(O)cc1)NC(=O)[C@H](CC(=O)O)NC(=O)[C@H](CO)NC(=O)[C@@H](NC(=O)[C@H](Cc1ccccc1)NC(=O)[C@@H](NC(=O)CNC(=O)[C@H](CCC(=O)O)NC(=O)C(C)(C)NC(=O)[C@@H](N)Cc1ccc(O)cc1)[C@@H](C)O)[C@@H](C)O)[C@@H](C)CC)C(C)C)C(=O)N[C@@H](C)C(=O)N[C@@H](Cc1c[nH]c2ccccc12)C(=O)N[C@@H](CC(C)C)C(=O)N[C@H](C(=O)N[C@@H](CCCCN)C(=O)NCC(N)=O)C(C)C) [Analog 057] | 4.23 | – | 0.57 | 36.8
Y[Aib]EGTFTSDYSIYMEKEAVEEFIAWLVKG-NH2 (lactam 16-20; N-terminus assumed; SMILES CC[C@H](C)[C@H](NC(=O)[C@H](Cc1ccccc1)NC(=O)[C@H](CCC(=O)O)NC(=O)[C@@H]1CCC(=O)NCCCC[C@H](NC(=O)[C@H](CCC(=O)O)NC(=O)[C@H](CCSC)NC(=O)[C@H](Cc2ccc(O)cc2)NC(=O)[C@@H](NC(=O)[C@H](CO)NC(=O)[C@H](Cc2ccc(O)cc2)NC(=O)[C@H](CC(=O)O)NC(=O)[C@H](CO)NC(=O)[C@@H](NC(=O)[C@H](Cc2ccccc2)NC(=O)[C@@H](NC(=O)CNC(=O)[C@H](CCC(=O)O)NC(=O)C(C)(C)NC(=O)[C@@H](N)Cc2ccc(O)cc2)[C@@H](C)O)[C@@H](C)O)[C@@H](C)CC)C(=O)N[C@@H](CCC(=O)O)C(=O)N[C@@H](C)C(=O)N[C@@H](C(C)C)C(=O)N1)C(=O)N[C@@H](C)C(=O)N[C@@H](Cc1c[nH]c2ccccc12)C(=O)N[C@@H](CC(C)C)C(=O)N[C@H](C(=O)N[C@@H](CCCCN)C(=O)NCC(N)=O)C(C)C) [Analog 053-2] | 2.96 | 37 | 0.48 | 35.4
Y[Aib]EGTFTSDYSIYMEKEAVREFIAWLVKGRRRRRR-NH2 (N-terminus assumed; SMILES CC[C@H](C)[C@H](NC(=O)[C@H](Cc1ccccc1)NC(=O)[C@H](CCC(=O)O)NC(=O)[C@H](CCCNC(=N)N)NC(=O)[C@@H](NC(=O)[C@H](C)NC(=O)[C@H](CCC(=O)O)NC(=O)[C@H](CCCCN)NC(=O)[C@H](CCC(=O)O)NC(=O)[C@H](CCSC)NC(=O)[C@H](Cc1ccc(O)cc1)NC(=O)[C@@H](NC(=O)[C@H](CO)NC(=O)[C@H](Cc1ccc(O)cc1)NC(=O)[C@H](CC(=O)O)NC(=O)[C@H](CO)NC(=O)[C@@H](NC(=O)[C@H](Cc1ccccc1)NC(=O)[C@@H](NC(=O)CNC(=O)[C@H](CCC(=O)O)NC(=O)C(C)(C)NC(=O)[C@@H](N)Cc1ccc(O)cc1)[C@@H](C)O)[C@@H](C)O)[C@@H](C)CC)C(C)C)C(=O)N[C@@H](C)C(=O)N[C@@H](Cc1c[nH]c2ccccc12)C(=O)N[C@@H](CC(C)C)C(=O)N[C@H](C(=O)N[C@@H](CCCCN)C(=O)NCC(=O)N[C@@H](CCCNC(=N)N)C(=O)N[C@@H](CCCNC(=N)N)C(=O)N[C@@H](CCCNC(=N)N)C(=O)N[C@@H](CCCNC(=N)N)C(=O)N[C@@H](CCCNC(=N)N)C(=O)N[C@@H](CCCNC(=N)N)C(N)=O)C(C)C) [Analog 075] | 1.41 | 77.7 | 1.45 | 8.3
